Measured values from patent US20220153790A1 (TECHNISCHE UNIVERSIT T M NCHEN, published 2022).
Each block holds one binder with its values, some of them ahead of it.

Experiments:
[1] = target: T1, fully glycosylated, monobiotinylated extracellular domain of human CD98hc produced in HEK 293E cells (human, UniProt P08195 111-529, N-linked glycosylation at Asn264, 280, 323 and 405 (UniProt P08195-2); single biotin on the N-terminal BAP); test: not given
T1 construct: also called hCD98hcEDg; CD98hcEDg; not shown: N-terminal His6 tag and biotin acceptor peptide (BAP) from pDSG-BM-His6-BAP-hCD98hcEDg
T1 sequence: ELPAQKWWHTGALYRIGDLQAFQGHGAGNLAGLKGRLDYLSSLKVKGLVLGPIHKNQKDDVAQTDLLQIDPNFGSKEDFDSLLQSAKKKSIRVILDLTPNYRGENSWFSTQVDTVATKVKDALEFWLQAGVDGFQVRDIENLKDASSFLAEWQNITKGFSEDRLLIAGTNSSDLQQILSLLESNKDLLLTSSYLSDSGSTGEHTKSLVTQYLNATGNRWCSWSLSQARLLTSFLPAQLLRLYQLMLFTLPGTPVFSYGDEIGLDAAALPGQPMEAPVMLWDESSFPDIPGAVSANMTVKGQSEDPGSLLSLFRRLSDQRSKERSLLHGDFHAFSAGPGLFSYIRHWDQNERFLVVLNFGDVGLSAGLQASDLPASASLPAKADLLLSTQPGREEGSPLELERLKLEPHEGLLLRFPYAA

[2] = target: T2, unglycosylated, monobiotinylated extracellular domain of human CD98hc produced in E. coli (human, UniProt P08195 111-529, single biotin on the N-terminal biotin acceptor peptide (BAP)); test: SPR, complex dissociation half-life
T2 construct: also called hCD98hcED; CD98hcED; not shown: N-terminal biotin acceptor peptide (BAP) from pASK-IBA5(+)-BAP-hCD98hcED
T2 sequence: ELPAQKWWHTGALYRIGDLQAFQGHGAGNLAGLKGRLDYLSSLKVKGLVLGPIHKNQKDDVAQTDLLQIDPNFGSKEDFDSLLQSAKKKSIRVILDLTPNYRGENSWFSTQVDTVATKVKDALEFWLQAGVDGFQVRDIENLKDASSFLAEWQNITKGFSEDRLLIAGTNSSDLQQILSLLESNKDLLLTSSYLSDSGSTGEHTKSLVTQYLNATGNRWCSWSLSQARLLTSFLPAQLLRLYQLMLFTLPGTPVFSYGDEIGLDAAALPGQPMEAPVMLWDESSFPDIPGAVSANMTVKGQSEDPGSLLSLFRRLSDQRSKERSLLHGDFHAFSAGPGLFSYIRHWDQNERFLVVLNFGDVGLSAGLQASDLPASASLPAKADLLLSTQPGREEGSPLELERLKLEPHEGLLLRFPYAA
Description: (§1) Real time surface plasmon resonance (SPR) spectroscopy was performed on a BIAcore 2000 system (BIAcore, Uppsala, Sweden) at 25° C. using HBS-T (20 mM Hepes/NaOH pH 7.5, 150 mM NaCl, 0.005% v/v Tween20) as running buffer. The purified biotinylated m/hCD98hcED (3 μg/ml protein solution in HBS-T produced in HEK cells or E. coli) was immobilized (ARU-225) via streptavidin on a CAP sensorchip of the Biotin CAPture kit (GE Healthcare). SPR single cycle kinetic experiments were performed using five consecutive injections of a 1:2 dilution series of the purified lipocalin variant at a flow rate of 25 μl/min, with 288 s contact time and 3500 s dissociation time after the fifth injection. For multi cycle kinetic experiments, eight samples from a consecutive 1:2 dilution series of the purified lipocalin variant were measured. Rate constants of association and dissociation were calculated from reference-corrected sensorgrams by fitting to a global 1:1 Langmuir binding model using BIAevaluation software (BIAcore). The equilibrium dissociation constants (KD value) were calculated as the quotient koff/kₒₙ. To test competitive binding of the lipocalin variants P3D11, P3A12 and P1E4 to glycosylated hCD98hcED, 100 nM of P3D11 was first injected and followed by a subsequent injection of either 100 nM P3A12 or 100 nM P1E4. HBS-T injections served as negative control.

[3] = target: T1, fully glycosylated, monobiotinylated …; test: SPR, complex dissociation half-life
Description: as §1

[4] = target: T1, fully glycosylated, monobiotinylated …; test: SPR, biotinylated hCD98hcEDg captured on CAP chip
Description: as §1

[5] = target: T2, unglycosylated, monobiotinylated …; test: SPR (BIAcore 2000), biotinylated hCD98hcED captured on CAP chip, single cycle kinetics
Description: as §1

[6] = target: T2, unglycosylated, monobiotinylated …; test: flow cytometry of E. coli displaying the lipocalin; hCD98hcED detected by PE fluorescence, display level by Dy634 fluorescence
Description: (§2) The bacterial lawn was scraped from the plate(s), resuspended in 50 ml LB/Amp medium, followed by inoculation to an initial OD₅₅₀ of 0.15 at 37° C. Gene expression was induced at OD₅₅₀=0.5 with 10 ng/ml anhydrotetracycline (aTc) for 2.5 h. Approximately 2×10⁸ cells were sedimented and resuspended in PBS with biotinylated hCD98hcED at different concentrations (cycles 1 and 2: 100 nM; cycles 3 and 4: 10 nM; cycles 5 and 6: 1 nM) for 1 h at 4° C. After one washing step with PBS, the bacteria were incubated with 25 μg/ml streptavidin/phycoerythrin (PE) conjugate (Biolegend, San Diego, Calif.) and 3 μM dye-labeled Fab A3C5-DY634 [61] in PBS for 30 min followed by a last washing step in PBS. Bacteria were sorted on a FACSAria Ilu instrument (BD Bioscience, Heidelberg, Germany) using a 488 nm LASER diode with a 585/42 band pass filter or a 633 nm HeNe LASER in combination with a 660/20 band pass filter for excitation/detection of PE and DY634 fluorescence, respectively. Sorted bacteria were plated on LB/Amp agar, incubated at 37° C. for 12 h and then subjected to a new sorting cycle. After BSD cycle 6, single clone analysis was performed by cytofluorimetric analysis of individual colonies. Data were processed using FlowJo v10 software (FlowJo, Ashland, Oreg.). […]

[7] = target: T2, unglycosylated, monobiotinylated …; test: single clone flow cytometry of E. coli displaying the lipocalin, 1 nM biotinylated hCD98hcED, mean PE fluorescence
Description: as §2

Kd [1]: ≤ 0.2 µM
T½ [2]: 1.13 h
T1/2 [3]: 0.483 h
Kd [4]: 0.0019 µM
koff [4]: 0.0004 s⁻¹
kon [4]: 220000 M⁻¹ s⁻¹
Kd [5]: 0.0028 µM
koff [5]: 0.00017 s⁻¹
kon [5]: 62000 M⁻¹ s⁻¹
B1: lipocalin variant P3A12 (designed binder)
chain: QDSTSDLIPAPPLSKVPLQQNFQDNQFHGKWYVVGRAGNLGLREDKDPAKMFATIYELKEDKSYNVTYVWFDLKKCKYSIHTFVPGSQPGEFTLGKIKSGPGHTSWLVRVVSTNYNQHAMVFFKWVGQNRENFAITLYGRTKELTSELKENFIRFSKSLGLPENHIVFPVPIDQCIDG
notes: produced soluble in E. coli JM83, monomeric; also called Anticalin P3A12; not shown: C-terminal His6-tag (plasmid pNGAL118)

binding result [6]: no binding (tested: 100 nM hCD98hcED)
B2: wtLcn2 displayed on the E. coli cell surface (other)
chain: QDSTSDLIPAPPLSKVPLQQNFQDNQFQGKWYVVGLAGNAILREDKDPQKMYATIYELKEDKSYNVTSVLFRKKKCDYWIRTFVPGCQPGEFTLGNIKSYPGLTSYLVRVVSTNYNQHAMVFFKKVSQNREYFKITLYGRTKELTSELKENFIRFSKSLGLPENHIVFPVPIDQCIDG
notes: Control in the single clone FACS analysis; also called wild type Lcn2; not shown: The display carrier: the A3C5 tag and the engineered beta-domain of the autotransporter EspP (pNGAL146)

binding result [7]: binds
B3: P3D11 variant D11.1 displayed on the E. coli cell surface (designed binder)
chain: QDSTSDLIPAPPLSKVPLQQNFQDNQFHGKWYVVGRAGNTGLREDKDPGKMFATIYELKEDKSYNVTYVWSGQKKCMYSIVTFVPGSQPGEFTLGNIKSAPGQTSWLVRVVSTNYNQHAMVFFKSVTQNREGFAITLYGRTKELTSELKEIFIRFSKSLGLPENHIVFPVPIDQCIDG
notes: One of the variants from error-prone PCR and bacterial surface display; not shown: The display carrier: the A3C5 tag and the engineered beta-domain of the autotransporter EspP (pNGAL146)

Kd [1]: ≤ 0.2 µM
B4: SEQ ID NO 10 (designed binder)
chain: QDSTSDLIPAPPLSKVPLQQNFQDNQFHGKWYVVGRAGNTGLREDKDPGKMFATIYELKEDKSYNVTYVWSGQKKCMYSIVSFVPGSQPGEYNLGNIKSAPGRTSWLVRVVSTNYNQHAMVFFKSVTQNREGFAITLYGRTKELTSELKENFIRFSKSLGLPENHIVFPVPIDQCIDG

Kd [1]: ≤ 0.2 µM
B5: SEQ ID NO 7 (designed binder)
chain: QDSTSDLIPAPPLSKVPLQQNFQDNQFHGKWYVVGRAGNTGLREDKDPGKMFATIYELKEDKSYNVTYVWFGQKKCMNSIVTFVPGSQPGEFTLGNIKSAPGRTSWLVRVVSTNYNQYAMVFFKSVTQNREGFAITLYGRTKELTSELKENFIRFSKSLGLPENHIVFPVPIDQCIDG

Kd [1]: ≤ 0.2 µM
B6: SEQ ID NO 8 (designed binder)
chain: QDSTSDLIPAPPLSKVPLQQNFQDNQFHGKWYVVGRAGNTGLREDKDPGKMFATIYELKEDKSYNVTYVWFGQKKCMYSIVTFVPGSQPGEFTLGNIKSAPGRTSWLVRVVSTNYNQYAMVFFKSETQNREGFAITLYGRTKELTSELKEYFIRFSKSLGLPENHIVFPVPIDQCIDG

Kd [1]: ≤ 0.2 µM
B7: SEQ ID NO 9 (designed binder)
chain: QDSTSDLIPAPPLSKVPLQQNFQDNQFHGKWYVVGRAGNTGLREDKDPGKMFATIYELKEDKSYNVTYVWFGQKKCMYSIVTFVPGSQPGEFTLGNIKSAPGRTSWLVRVVSTNYNQHAMVFFKSVTQNREEFAITLYGRTKELTSELKENFIRFSKSLGLPENHIVFPVPIDQCIDG

Kd [1]: ≤ 0.2 µM
B8: SEQ ID NO 5 (designed binder)
chain: QDSTSDLIPAPPLSKVPLQQNFQDNQFHGKWYVVGRAGNTGLREDKDPGKMFATIYELKEDKSYNVTYVWFGQKKCMYSIVTFVPGSQPGEFTLGNIKSAPGRTSWLVRVVSTNYNQYAMVFFKSVTQNREGFAITLYGRTKELTSELKENFIRFSKSLGLPENHIVFPVPIDQCIDG

Kd [1]: ≤ 0.2 µM
B9: SEQ ID NO 11 (designed binder)
chain: QDSTSDLIPAPPLSKVPLQQNFQDNQFHGKWYVVGRAGNTGLREDKDPGKMFATIYELKEDKSYNVTYVWSGQTKCMYSIVTFVPGSQPGEFTLGNIKSAPGRTSWLVRVVSTNYNQHAMVFFKSVTQNREGFAITLYGRTKELTSELKENFIRFSKSLGLPENHIVFPVPIDQCIDG

Kd [1]: ≤ 0.2 µM
T½ [2]: 5.99 h
T1/2 [3]: 3.83 h
Kd [4]: 0.00017 µM
koff [4]: 5e-05 s⁻¹
kon [4]: 300000 M⁻¹ s⁻¹
Kd [5]: 0.00015 µM
koff [5]: 3.2e-05 s⁻¹
kon [5]: 220000 M⁻¹ s⁻¹
B10: lipocalin variant P3D11 (designed binder)
chain: QDSTSDLIPAPPLSKVPLQQNFQDNQFHGKWYVVGRAGNTGLREDKDPGKMFATIYELKEDKSYNVTYVWFGQKKCMYSIGTFVPGSQPGEFTLGNIKSAPGRTSWLVRVVSTNYNQHAMVFFKSVTQNREGFAITLYGRTKELTSELKENFIRFSKSLGLPENHIVFPVPIDQCIDG
notes: produced soluble in E. coli JM83, monomeric; also called Anticalin P3D11; not shown: C-terminal His6-tag (plasmid pNGAL118)

Kd [1]: ≤ 0.2 µM
B11: SEQ ID NO 6 (designed binder)
chain: QDSTSDLIPAPPLSKVPLQQNFQDNQFHGKWYVVGRAGNTGLREDKDPGKMFATIYELKEDKSFNVTYVWFGQKKCMYSIVTFVPGSQPGEFTLGNIKSAPGRTSWLVRVVSTNYNQHAMVFFKSVTQNREGFAITLYGRTKELTSELKENFIRFSKSLGLPENHIVFPVPIDQCIDG
